These results are taken from patent US20250333497A1 (University of California, published 2025).

Residue numbers refer to the chain shown, from its start.

The chains are these.
B1: A005 (antibody, V domains shown)
VH: QVQLVESGGGVVQPGRSLRLSCAASGFTFSDYGMHWVRQAPGKGLEWVAVISYDGSRKYYANSVKGRFTISRDNSKNTLYLQMNSLRAEDTAVYYCARGSYSDGFDVWGQGTLVTVSS
VL: DIQMTQSPSSLSASVGDRVTITCRASQSISRYLNWYQQKTGKAPKLLIYGASSLQSGVPSRFSGSGSGTDFTLTISSLQPEDFATYYCQQSYSTPYTFGQGTKVEIK
notes: VH/VL only; also called 3-G6
B2: A004 (antibody, V domains shown)
VH: B1 VH with D54E, R57N, K58E, N62D, Y101E, S102G, D103S
VL: B1 VL with S28R, R31N, T40P, G50A, T94P
notes: VH/VL only; also called 2-H2
B3: A006 (antibody, V domains shown)
VH: QVQLVQSGAEVKKPGSSVKVSCKASGGTFSTEYISWVRQAPGQGLEWMGRIIPVLGITNYAQKFQGRVTITADESTSTAYMELSSLRSEDTAVYYCARHLGPPYLVTYSHGFDVWGQGTLVTVSS
VL: EIVMTQSPATLSVSPGERATLSCRASQSLGTNLAWYQQKPGQAPRLLIYGASTRATGIPARFSGSGSGTEFTLTISSLQSEDFAVYYCQQYYEAPPTFGQGTKVEIK
notes: VH/VL only; also called 3-G7
B4: A007 (antibody, V domains shown)
VH: EVQLLESGGGLVQPGGSLRLSCAASGFTFRNYAMSWVRQAPGKGLEWVSSISGGGINTYYADSVKGRFTISRDNSKNTLYLQMNSLRAEDTAVYYCARVRSYSGPGYFDYWGQGTLVTVSS
VL: B3 VL with E17D, Q27R, L29V, G30S, T31S, E93N, A94W, P96L
notes: VH/VL only; also called 8-A7
B5: A003 (antibody, V domains shown)
VH: B1 VH with S30R, D54H, S56R, R57N, K58E, S100A, S102G, G104D
VL: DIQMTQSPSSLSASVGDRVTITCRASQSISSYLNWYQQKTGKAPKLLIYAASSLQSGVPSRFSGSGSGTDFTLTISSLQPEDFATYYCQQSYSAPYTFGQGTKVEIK
notes: VH/VL only; also called 5-E2
B6: A001 (antibody, V domains shown)
VH: EVQLLESGGGLVQPGGSLRLSCAASGFTFSSYAMSWVRQAPGKGLEWVSTIYASGATTYYADSVKGRFTISRDNSKNTLYLQMNSLRAEDTAVYYCARLKLYHAAFDIWGQGTLVTVSS
VL: B1 VL with S28D, R31S, T40P, G50T, T94Y, Y96L
notes: VH/VL only; also called 3-C11
B7: A002 (antibody, V domains shown)
VH: EVQLLESGGGLVQPGGSLRLSCAASGFTFKNYAMSWVRQAPGKGLEWVSAISASGGYTYYADSVKGRFTISRDNSKNTLYLQMNSLRAEDTAVYYCARGRWGAFDYWGQGTLVTVSS
VL: QSVLTQPPSVSGAPGQRVTISCTGSSSNIGSGYDVHWYQQLPGTAPKLLIYGNRNRPSGVPDRFSGSKSGTSASLAITGLQAEDEADYYCQSYDSSLKTWVFGGGTKLTVL
notes: VH/VL only; also called 4-A8

The first test deals with T1, domain A-deleted PLXDC1 (PLXDC1-dA) (Homo sapiens (Human), UniProt Q8IUK5 128-500).
T1 construct: also called mutant with Domain A deleted
Kind of test: staining of transfected cells (FIG. 4A-H). From the text:
(§1) Both full length PLXDC1 and Domain A deleted PLXDC1 (PLXDC1-dA) have an epitope tag on the N-terminus.
Consider B1, for which the binding result is on record as “no binding”.

On to B2, for which the binding result is recorded as “no binding”.

B3: the binding result is “no binding”.

B4: the binding result is on record as “no binding”.

A further test has as its target T2, Full length PLXDC1 (PLXDC1-Full) (Homo sapiens (Human), UniProt Q8IUK5 19-500).
T2 construct: also called full PLXDC1 protein
T2 sequence: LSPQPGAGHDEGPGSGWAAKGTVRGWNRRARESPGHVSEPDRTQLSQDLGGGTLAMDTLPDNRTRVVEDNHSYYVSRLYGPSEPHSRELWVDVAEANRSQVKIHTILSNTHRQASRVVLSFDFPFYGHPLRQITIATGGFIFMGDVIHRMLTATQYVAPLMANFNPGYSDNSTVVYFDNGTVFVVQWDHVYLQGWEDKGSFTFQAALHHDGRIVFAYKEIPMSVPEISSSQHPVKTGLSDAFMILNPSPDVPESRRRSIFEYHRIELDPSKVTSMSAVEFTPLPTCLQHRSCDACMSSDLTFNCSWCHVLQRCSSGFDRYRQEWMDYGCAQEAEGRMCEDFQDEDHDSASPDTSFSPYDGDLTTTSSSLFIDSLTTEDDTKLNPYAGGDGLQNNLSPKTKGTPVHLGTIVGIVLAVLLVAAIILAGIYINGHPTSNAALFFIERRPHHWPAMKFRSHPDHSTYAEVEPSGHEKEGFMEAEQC
The test is described as follows: staining of transfected cells (FIG. 3-4).
Excerpt: as §1
Regarding B5, the binding result is “binds”.

Regarding B1, the binding result is “binds”.

Take B2: the binding result is “binds”.

For the molecule B3, the binding result is given as “binds”.

For B4, the binding result is recorded as “binds”.

With B6, the binding result is on record as “binds”.

As to B7, the binding result is on record as “binds”.

A further test deals with T1, domain A-deleted PLXDC1 (PLXDC1-dA). Kind of test: staining of transfected cells (FIG. 3C-H).
Excerpt: as §1
With B5, the binding result was “no binding”.

As to B6, the binding result is recorded as “no binding”.

As to B7, the binding result is given as “no binding”.
